Results on three molecules are retold here after patent US20200299380A1 (published 2020).

Positions count from the first letter of the chain named.

Experiment [1] deals with T1, recombinant human MICA extracellular domain recombinant-His protein (MICA*001 allele) (human, UniProt Q29983 24-297).
T1 construct: also called MICA*001-His; MICA-His; not shown: His tag
T1 sequence: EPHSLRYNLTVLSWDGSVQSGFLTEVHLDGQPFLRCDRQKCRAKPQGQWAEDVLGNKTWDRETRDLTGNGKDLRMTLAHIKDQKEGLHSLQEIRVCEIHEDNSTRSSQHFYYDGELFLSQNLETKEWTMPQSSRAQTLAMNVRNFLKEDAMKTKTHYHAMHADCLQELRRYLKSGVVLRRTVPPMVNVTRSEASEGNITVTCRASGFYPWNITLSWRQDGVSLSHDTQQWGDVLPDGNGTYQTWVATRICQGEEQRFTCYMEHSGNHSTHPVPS
Nature of the experiment: SPR (Biacore T100), bivalent mean KD at pH 7.4, MICA*001-His on NTA chip, antibody injected. The method, then:
The binding of 6E4, 20C6 and 16A8 to either recombinant human MICA extracellular domain recombinant protein monomers or dimers (MICA*019 allele-Fc protein or MICA*001-His protein) as well as other NKG2D ligands MICB and ULBP1-2 was analyzed by Surface Plasmon Resonance (SPR) using a Biacore T100 apparatus to obtain monovalent and bivalent affinity, respectively.
Each cycle consisted of three steps. Firstly, the NTA chip was activated with NiSO₄ (500 mM). Secondly, the MICA-His protein (diluted to 10 μg/ml in running buffer HBS-P) was immobilized onto the surface via a 2 min injection at a constant flowrate of 10 μL/min. Then the antibody was injected over the immobilized antigen for 2 min at the flow rate of 40 μl/min. Subsequently, the running buffer was injected for 5 min at 40 μl/min for antibody dissociation analysis. After each cycle, the surface was regenerated by a 60s injection of 0.5M EDTA, pH 8.3 to completely strip the surface of the remaining antigen and antibody. The resulting sensorgrams were analyzed by global fitting using the appropriate model.

Experiment [2] concerns the target T1, recombinant human MICA extracellular …. Nature of the experiment: SPR (Biacore T100), monovalent affinity.
In experiment [3] the target is T2, MICB-Fc (R&D Systems 1599-MB) (human, UniProt Q29980 23-298, limits assumed).
T2 construct: Bought; also called human MICB-Fc; not shown: Fc of the bought fusion protein
T2 sequence: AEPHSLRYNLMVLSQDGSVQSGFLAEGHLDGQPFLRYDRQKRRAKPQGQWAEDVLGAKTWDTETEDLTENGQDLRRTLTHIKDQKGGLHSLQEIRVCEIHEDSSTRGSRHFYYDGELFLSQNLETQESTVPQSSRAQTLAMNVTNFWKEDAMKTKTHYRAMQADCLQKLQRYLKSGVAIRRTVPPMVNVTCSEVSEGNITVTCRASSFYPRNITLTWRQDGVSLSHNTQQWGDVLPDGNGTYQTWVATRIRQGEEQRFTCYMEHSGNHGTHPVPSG
Nature of the experiment: SPR, antibody injected over immobilized MICB-Fc. The method, then:
For cross-binding study, the human ULBP-1-Fc (R&D systems*), MICB-Fc (*), ULBP-2-Fc (*) and ULBP-3-Fc (*) recombinant proteins were covalently immobilized respectively on the flow cell one to four of a CM5 sensorchip. Anti-MICA antibodies (at a constant concentration of 10 μg/ml) were injected for 2 minutes at a flow rate of 10 μl/min onto the four flow cells in parallel. After each cycle, Sensorchip was regenerated by a five second injection of appropriate regeneration buffer.

For a further experiment, the target named is T3, MICA*001-BirA (human, UniProt Q29983 24-297).
T3 construct: also called MICA-BirA; MICA*01-BirA; not shown: BirA tag
T3 sequence: T1 sequence
Nature of the experiment: SPR single cycle kinetics, monovalent mean KD at pH 7.4, antibody captured on Protein-G chip, MICA-BirA injected. As to the method: For monovalent affinity measurement, chimeric anti-MICA antibodies were captured onto a Protein-G chip.
Affinities were determined using single cycle kinetics (SCK). SCK cycles were as follows: Successive 120s injections at 30 μl/min of 5 serial dilutions (0.01 to 100 nM) of MICA-His or MICA-BirA in ascending order (or of buffer for the blank injections to be subtracted during the analysis). After the last concentration is injected, complex is left to dissociate for 600s before regeneration by a 10s injection of appropriate regeneration buffer at 40 μl/min. After the regeneration, chip is left to stabilise for 60s in running buffer. Curves are fitted using Biacore T100 Evaluation software.

The target of experiment [4] is T4, MICA*008 expressed at the cell surface (human, UniProt Q29983 24-297).
T4 construct: also called C1R-MICA*008; C1R-MICA*08
T4 chain: T1 sequence with T24A, C36Y, K125E, M129V, K173E, G206S, W210R, T213I, S215T, Q251R
Nature of the experiment: flow cytometry on C1R transfectant cells, 4-parameter logistic fit. As to the method:
(§1) The binding of antibodies obtained from the first, second and third immunization series (including CHG1-M-MIA-19E9, CHG1-M-MIA-9C10, CHG1-M-MIA-6E4, CHG1-M-MIA-20C6, CHG1-M-MIA-16A8, CHG1-M-MIA-12A10, CHG1-M-MIA-10A7, CHG1-M-MIA-18E8, CHG1-M-MIA-10F3, CHG1-M-MIA-15F9 and CHG1-M-MIA-14B4) were tested for binding to MICA-expressing CR1 transfectant cells C1R-MICA*001, C1R-MICA*004, C1R-MICA*007 and C1R-MICA*008 (Pr. A. Steinle, Eberhard-Karls University Tuebingen, Germany) described in Salih et al. (2003) Blood 102(4): […]. Binding was analyzed by flow cytometry.
(§2) Cells were harvested and stained in PBS 1×/BSA 0.2%/EDTA 2 mM buffer during 30 minutes at 4° C. using a dose-range of the anti-MICA mAbs. After two washes in staining buffer, cells were stained for 30 min at 4° C. with mouse anti-human IgG1-PE monoclonal antibodies (1/11). After two washes, stainings were acquired on a BD FACS Canto II and analyzed using the FlowJo software.
(§3) Antibodies CHG1-M-MIA-19E9, CHG1-M-MIA-9C10, CHG1-M-MIA-6E4, CHG1-M-MIA-20C6, CHG1-M-MIA-12A10, CHG1-M-MIA-10A7, CHG1-M-MIA-18E8, CHG1-M-MIA-10F3, and CHG1-M-MIA-15F9 bound to each of the C1R-MICA*001, C1R-MICA*004, C1R-MICA*007 and C1R-MICA*008 cells (see FIG. 1A for antibodies CHG1-M-MIA-19E9, CHG1-M-MIA-9C10, CHG1-M-MIA-6E4, CHG1-M-MIA-20C6, CHG1-M-MIA-12A10, CHG1-M-MIA-10F3, and FIG. 1B for antibodies, CHG1-M-MIA-18E8, CHG1-M-MIA-15F9, CHG1-M-MIA-10A7). […] EC50 values are shown in Table C in μg/ml (calculated using a 4-parameter logistic fit).

Experiment [5] concerns the target T5, MICA*001 expressed at the cell surface (human, UniProt Q29983 24-297).
T5 construct: the protein on cells also has its transmembrane and cytoplasmic parts (Genbank AAB41060); also called C1R-MICA*001; C1R-MICA*01
T5 sequence: T1 sequence
The experiment is described as above. The method, then:
as §1, §2, §3

In experiment [6] the target is T6, MICA*007 expressed at the cell surface (human, UniProt Q29983 24-297).
T6 construct: also called C1R-MICA*007; C1R-MICA*07
T6 chain: T1 sequence with T24A, K125E
Described as above. As to the method: as §1, §2, §3

Experiment [7] deals with T7, MICA*004 expressed at the cell surface (human, UniProt Q29983 24-297).
T7 construct: also called C1R-MICA*004; C1R-MICA*04
T7 chain: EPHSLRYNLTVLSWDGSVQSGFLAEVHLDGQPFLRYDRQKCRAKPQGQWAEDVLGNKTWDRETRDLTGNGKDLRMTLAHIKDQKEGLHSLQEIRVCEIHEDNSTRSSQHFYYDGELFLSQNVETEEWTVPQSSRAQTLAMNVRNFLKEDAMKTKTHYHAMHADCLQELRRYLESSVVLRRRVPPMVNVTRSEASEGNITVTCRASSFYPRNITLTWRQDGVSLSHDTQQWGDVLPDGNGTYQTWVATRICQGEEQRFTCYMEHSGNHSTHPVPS
The description is as above. As to the method:
as §1, §2, §3

B1: biotin-conjugated mouse antibody 20C6 (antibody, V domains shown)
VH: QITLKESGPGILKPSQTLSLTCSFSGFSLSTSGMGVGWIRQPSGKGLEWLAHIWWDDDKYYNPSLKSQLTISKDTSRNQVFLRITSVDTADTATYYCARRTQGYFDYWGQGTTLTVSS
VL: DIVMTQSPATLSVTPGDRVSLSCRASQSISDYLHWYQQKSHESPRLLIKYASQSISGIPSRFSGSGSGSDFTLSINSVEPEDVGVYYCQNGHSFPWTFGGGTKLEIK
notes: also called 20C6 (mouse)
On to B1, for which the Kd stood at 0.33 nM in experiment [1] and 6.5 nM in experiment [2].

B2: CHG1-M-MIA-12A10 (antibody, human IgG1, V domains shown)
VH: QVQLQQSGADLVRPGASVRLSCRASGYSFTNYWMNWVKQRPGQGLEWIGMIHPSDSETRLNQKFKDKATLTVDKSSNTAYMQLSSPTSEDSAIYYCARDDFFTMDYWGQGTSVTVSS
VL: DILLTQSPAILSVSPGERVSFSCRASQNIVTSIHWYQQSTNGSPRLLIKYASESISGIPSRFSGSGSGTDFTLTINSVESEDVADYYCQQSNIWPLTFGAGTKLELK
notes: the VH entry ends with ASTK
B2: the binding result in experiment [3] is listed as “no binding (tested: 10 µg/ml)”. The molecule also returned a Kd in the experiment with MICA*001-BirA of 53 nM. The concentration for a half-maximal effect (EC50) in experiment [4] was found to be 0.25 µg/mL; in experiment [5] it was 1.3 µg/mL; in experiment [6], 1.43 µg/mL; in experiment [7], 0.26 µg/mL.

B3: biotin-conjugated mouse antibody 6E4 (antibody, V domains shown)
VH: EVQLVESGGALVKPGGSLKLSCAASGFTFSYYAMSWVRQTPEKRLEWVATISRGGNYIYYTDSVKGRFTISRDNAKNTLYLQMTSLRSEDTAMFYCASISDYDGAWLAYWGQGTLVTV
VL: DVLMTQTPLSLPVSLGDQASISCRSSQSIIHTNGNTYLEWYLQKPGQSPKLLIYKISNRFSGVPDRFSGSGSGTDFTLKISRVEAEDLGVYYCFQGSHVPWTFGGGTKLEIK
notes: also called 6E4 (mouse)
Take B3: the Kd came to 0.031 nM in experiment [1] and 2 nM in experiment [2].
